The values below come from publication PMC12668130, “RNA-induced PRC2 inhibition depends on the sequence of bound RNA”.

In data set [1] the target is PRC2 four-subunit holoenzyme (EZH2-EED-SUZ12-RBAP48) (UniProt Q15910-2;O75530;Q15022;Q09028 1-751;1-441;1-739;1-425). Kind of data set: EMSA; 100 mM KCl; EMSA: 50 mM Tris-HCl pH 7.5 (25 C), 100 mM KCl, 2.5 mM MgCl2, 0.1 mM ZnCl2, 2 mM 2-mercaptoethanol, 0.05 mg/ml BSA, 0.05 mg/ml yeast tRNA, 5% glycerol, 30 C 30. The following applies: protein: recombinant; tags: MBP tags, removed by Prescission protease; copies: 1;1;1;1; label: 5'-32P (EMSA, UV); 5'-biotin (EM); no G4.

The target of data set [2] is PRC2 five-subunit (EZH2-EED-SUZ12-RBAP48-AEBP2) (UniProt Q15910-2;O75530;Q15022;Q09028;Q6ZN18-3 1-751;1-441;1-739;1-425;1-301). Kind of data set: EMSA; 100 mM KCl; affinity near identical to six-subunit; EMSA: 50 mM Tris-HCl pH 7.5 (25 C), 100 mM KCl, 2.5 mM MgCl2, 0.1 mM ZnCl2, 2 mM 2-mercaptoethanol, 0.05 mg/ml BSA, 0.05 mg/ml yeast tRNA, 5% glycerol, 30 C 30. The following applies: protein: recombinant; tags: MBP tags, removed by Prescission protease; copies: 1;1;1;1;1; label: 5'-32P (EMSA, UV); 5'-biotin (EM); no G4.

Sequence of PRC2 four-subunit holoenzyme (EZH2-EED-SUZ12-RBAP48) (Q15910 other isoform, or with tags, fused parts or gaps, chain 1 of 4): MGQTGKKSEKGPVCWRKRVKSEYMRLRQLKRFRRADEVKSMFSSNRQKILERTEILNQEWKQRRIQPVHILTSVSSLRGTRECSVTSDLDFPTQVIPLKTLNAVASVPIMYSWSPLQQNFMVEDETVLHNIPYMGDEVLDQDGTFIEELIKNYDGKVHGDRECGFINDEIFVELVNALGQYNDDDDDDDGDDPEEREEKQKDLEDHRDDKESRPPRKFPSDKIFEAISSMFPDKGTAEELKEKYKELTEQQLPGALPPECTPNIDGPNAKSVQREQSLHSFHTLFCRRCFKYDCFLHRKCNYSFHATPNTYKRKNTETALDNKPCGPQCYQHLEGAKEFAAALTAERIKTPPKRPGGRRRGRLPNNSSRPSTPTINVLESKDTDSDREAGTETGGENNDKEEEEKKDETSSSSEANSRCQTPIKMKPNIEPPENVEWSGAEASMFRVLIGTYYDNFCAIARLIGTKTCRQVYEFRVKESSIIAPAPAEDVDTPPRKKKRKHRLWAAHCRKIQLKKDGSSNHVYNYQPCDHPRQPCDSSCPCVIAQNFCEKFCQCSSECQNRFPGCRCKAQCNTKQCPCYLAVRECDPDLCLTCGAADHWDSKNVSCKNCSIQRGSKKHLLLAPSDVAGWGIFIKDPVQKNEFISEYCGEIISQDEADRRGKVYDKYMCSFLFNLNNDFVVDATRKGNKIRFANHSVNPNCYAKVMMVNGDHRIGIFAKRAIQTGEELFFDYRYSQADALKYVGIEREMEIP
Sequence of PRC2 four-subunit holoenzyme (EZH2-EED-SUZ12-RBAP48) (O75530 whole entry, chain 2 of 4): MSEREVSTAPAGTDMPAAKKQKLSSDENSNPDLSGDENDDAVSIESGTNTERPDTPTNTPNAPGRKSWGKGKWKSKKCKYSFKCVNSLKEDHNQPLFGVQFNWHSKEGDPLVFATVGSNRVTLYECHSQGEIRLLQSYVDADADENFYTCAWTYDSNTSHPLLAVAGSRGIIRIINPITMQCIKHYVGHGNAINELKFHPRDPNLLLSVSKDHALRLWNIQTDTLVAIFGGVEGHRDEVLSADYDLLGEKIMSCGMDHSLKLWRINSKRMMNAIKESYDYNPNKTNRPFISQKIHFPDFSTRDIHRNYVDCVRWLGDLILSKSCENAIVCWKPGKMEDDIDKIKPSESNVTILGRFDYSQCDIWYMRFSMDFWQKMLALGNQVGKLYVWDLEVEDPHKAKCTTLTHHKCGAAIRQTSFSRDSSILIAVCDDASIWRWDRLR
Sequence of PRC2 four-subunit holoenzyme (EZH2-EED-SUZ12-RBAP48) (Q15022 whole entry, chain 3 of 4): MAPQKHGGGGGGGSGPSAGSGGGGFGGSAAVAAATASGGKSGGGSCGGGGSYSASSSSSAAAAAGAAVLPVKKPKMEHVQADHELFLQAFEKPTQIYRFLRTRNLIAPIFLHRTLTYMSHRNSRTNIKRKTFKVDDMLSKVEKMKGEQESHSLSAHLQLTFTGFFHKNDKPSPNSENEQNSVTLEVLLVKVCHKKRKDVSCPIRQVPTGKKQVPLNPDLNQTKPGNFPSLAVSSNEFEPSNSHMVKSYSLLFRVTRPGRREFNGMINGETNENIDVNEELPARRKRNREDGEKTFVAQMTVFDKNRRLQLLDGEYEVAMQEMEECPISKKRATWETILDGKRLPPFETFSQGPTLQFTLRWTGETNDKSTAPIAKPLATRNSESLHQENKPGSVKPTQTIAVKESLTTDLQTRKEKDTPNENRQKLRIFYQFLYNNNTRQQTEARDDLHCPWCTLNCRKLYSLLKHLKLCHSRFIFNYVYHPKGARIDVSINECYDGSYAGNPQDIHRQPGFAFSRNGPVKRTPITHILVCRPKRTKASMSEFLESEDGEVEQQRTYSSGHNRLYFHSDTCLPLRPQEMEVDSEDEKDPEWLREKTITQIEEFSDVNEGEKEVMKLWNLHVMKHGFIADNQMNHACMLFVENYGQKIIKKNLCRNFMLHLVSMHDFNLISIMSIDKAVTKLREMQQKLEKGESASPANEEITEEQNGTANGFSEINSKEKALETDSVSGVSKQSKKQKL
Sequence of PRC2 four-subunit holoenzyme (EZH2-EED-SUZ12-RBAP48) (Q09028 whole entry, chain 4 of 4): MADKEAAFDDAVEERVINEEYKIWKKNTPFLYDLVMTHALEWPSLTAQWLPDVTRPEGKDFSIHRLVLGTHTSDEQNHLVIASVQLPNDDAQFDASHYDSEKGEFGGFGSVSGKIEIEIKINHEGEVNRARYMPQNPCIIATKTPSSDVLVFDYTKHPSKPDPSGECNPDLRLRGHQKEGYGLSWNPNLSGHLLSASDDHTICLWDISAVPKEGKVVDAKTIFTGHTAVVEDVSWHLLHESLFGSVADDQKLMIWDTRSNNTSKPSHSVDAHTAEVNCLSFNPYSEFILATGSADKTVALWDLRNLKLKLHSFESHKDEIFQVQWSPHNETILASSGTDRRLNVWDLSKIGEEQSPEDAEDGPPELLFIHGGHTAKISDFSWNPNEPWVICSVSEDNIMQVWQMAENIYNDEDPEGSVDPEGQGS

Regarding AAAAAAAAAAGAGAGAGAUGAGUGUGAGUGUGAGUGUGAGUGAGAGAGAG (ssRNA) [TERRAmut], the figures for the binding signal in data set [1] and in data set [2] were 12 Kd ratio TERRAmut/TERRA and 4 Kd ratio TERRAmut/TERRA, respectively.
